Laboratory results: patent publication US20130202609
Where a chain is given by its changes, count along the chain named. In names and notes the source's numbering stands.

B1: wild-type GAS57 (Spy0416), recombinant, purified from E. coli (protein)
chain 1: ADELSTMSEPTITNHAQQQAQHLTNTELSSAESKSQDTSQITLKTNREKEQSQDLVSEPTTTELADTDAASMANTGSDATQKSASLPPVNTDVHDWVKTKGAWDKGYKGQGKVVAVIDTGIDPAHQSMRISDVSTAKVKSKEDMLARQKAAGINYGSWINDKVVFAHNYVENSDNIKENQFEDFDEDWENFEFDAEAEPKAIKKHKIYRPQ
chain 2: STQAPKETVIKTEETDGSHDIDWTQTDDDTKYESHGMHVTGIVAGNSKEAAATGERFLGIAPEAQVMFMRVFANDIMGSAESLFIKAIEDAVALGADVINLSLGTANGAQLSGSKPLMEAIEKAKKAGVSVVVAAGNERVYGSDHDDPLATNPDYGLVGSPSTGRTPTSVAAINSKWVIQRLMTVKELENRADLNHGKAIYSESVDFKDIKDSLGYDKSHQFAYVKESTDAGYNAQDVKGKIALIERDPNKTYDEMIALAKKHGALGVLIFNNKPGQSNRSMRLTANGMGIPSAFISHEFGKAMSQLNGNGTGSLEFDSVVSKAPSQKGNEMNHFSNWGLTSDGYLKPDITAPGGDIYSTYNDNHYGSQTGTSMASPQIAGASLLVKQYLEKTQPNLPKEKIADIVKNLLMSNAQIHVNPETKTTTSPRQQGAGLLNIDGAVTSGLYVTGKDNYGSISLGNITDTMTFDVTVHNLSNKDKTLRYDTELLTDHVDPQKGRFTLTSHSLKTYQGGEVTVPANGKVTVRVTMDVSQFTKELTKQMPNGYYLEGFVRFRDSQDDQLNRVNIPFVGFKGQFENLAVAEESIYRLKSQGKTGFYFDESGPKDDIYVGKHFTGLVTLGSETNVSTKTISDNGLHTLGTFKNADGKFILEKNAQGNPVLAISPNGDNNQDFAAFKGVFLRKYQGLKASVYHASDKEHKNPLWVSPESFKGDKNFNSDIRFAKSTTLLGTAFSGKSLTGAELPDGHYHYVVSYYPDVVGAKRQEMTFDMILDRQKPVLSQATFDPETNRFKPEPLKDRGLAGVRKDSVFYLERKDNKPYTVTINDSYKYVSVEDNKTFVERQADGSFILPLDKAKLGDFYYMVEDFAGNVAIAKLGDHLPQTLGKTPIKLKLTDGNYQTKETLKDNLEMTQSDTGLVTNQAQLAVVHRNQPQSQLTKMNQDFFISPNEDGNKDFVAFKGLKNNVYNDLTVNVYAKDDHQKQTPIWSSQAGASVSAIESTAWYGITARGSKVMPGDYQYVVTYRDEHGKEHQKQYTISVNDKKPMITQGRFDTINGVDHFTPDKTKALDSSGIVREEVFYLAKKNGRKFDVTEGKDGITVSDNKVYIPKNPDGSYTISKRDGVTLSDYYYLVEDRAGNVSFATLRDLKAVGKDKAVVNFGLDLPVPEDKQIVNFTYLVRDADGKPIENLEYYNNSGNSLILPYGKYTVELLTYDTNAAKLESDKIVSFTLSADNNFQQVTFKITMLATSQITAHFDHLLPEGSRVSLKTAQDQLIPLEQSLYVPKAYGKTVQEGTYEVVVSLPKGYRIEGNTKVNTLPNEVHELSLRLVKVGDASDSTGDHKVMSKNNSQALTASATPT
B2: GAS57 mutant D151A, His-tagged (protein)
chain: ADELSTMSEPTITNHAQQQAQHLTNTELSSAESKSQDTSQITLKTNREKEQSQDLVSEPTTTELADTDAASMANTGSDATQKSASLPPVNTDVHDWVKTKGAWDKGYKGQGKVVAVIATGIDPAHQSMRISDVSTAKVKSKEDMLARQKAAGINYGSWINDKVVFAHNYVENSDNIKENQFEDFDEDWENFEFDAEAEPKAIKKHKIYRPQSTQAPKETVIKTEETDGSHDIDWTQTDDDTKYESHGMHVTGIVAGNSKEAAATGERFLGIAPEAQVMFMRVFANDIMGSAESLFIKAIEDAVALGADVINLSLGTANGAQLSGSKPLMEAIEKAKKAGVSVVVAAGNERVYGSDHDDPLATNPDYGLVGSPSTGRTPTSVAAINSKWVIQRLMTVKELENRADLNHGKAIYSESVDFKDIKDSLGYDKSHQFAYVKESTDAGYNAQDVKGKIALIERDPNKTYDEMIALAKKHGALGVLIFNNKPGQSNRSMRLTANGMGIPSAFISHEFGKAMSQLNGNGTGSLEFDSVVSKAPSQKGNEMNHFSNWGLTSDGYLKPDITAPGGDIYSTYNDNHYGSQTGTSMASPQIAGASLLVKQYLEKTQPNLPKEKIADIVKNLLMSNAQIHVNPETKTTTSPRQQGAGLLNIDGAVTSGLYVTGKDNYGSISLGNITDTMTFDVTVHNLSNKDKTLRYDTELLTDHVDPQKGRFTLTSHSLKTYQGGEVTVPANGKVTVRVTMDVSQFTKELTKQMPNGYYLEGFVRFRDSQDDQLNRVNIPFVGFKGQFENLAVAEESIYRLKSQGKTGFYFDESGPKDDIYVGKHFTGLVTLGSETNVSTKTISDNGLHTLGTFKNADGKFILEKNAQGNPVLAISPNGDNNQDFAAFKGVFLRKYQGLKASVYHASDKEHKNPLWVSPESFKGDKNFNSDIRFAKSTTLLGTAFSGKSLTGAELPDGHYHYVVSYYPDVVGAKRQEMTFDMILDRQKPVLSQATFDPETNRFKPEPLKDRGLAGVRKDSVFYLERKDNKPYTVTINDSYKYVSVEDNKTFVERQADGSFILPLDKAKLGDFYYMVEDFAGNVAIAKLGDHLPQTLGKTPIKLKLTDGNYQTKETLKDNLEMTQSDTGLVTNQAQLAVVHRNQPQSQLTKMNQDFFISPNEDGNKDFVAFKGLKNNVYNDLTVNVYAKDDHQKQTPIWSSQAGASVSAIESTAWYGITARGSKVMPGDYQYVVTYRDEHGKEHQKQYTISVNDKKPMITQGRFDTINGVDHFTPDKTKALDSSGIVREEVFYLAKKNGRKFDVTEGKDGITVSDNKVYIPKNPDGSYTISKRDGVTLSDYYYLVEDRAGNVSFATLRDLKAVGKDKAVVNFGLDLPVPEDKQIVNFTYLVRDADGKPIENLEYYNNSGNSLILPYGKYTVELLTYDTNAAKLESDKIVSFTLSADNNFQQVTFKITMLATSQITAHFDHLLPEGSRVSLKTAQDQLIPLEQSLYVPKAYGKTVQEGTYEVVVSLPKGYRIEGNTKVNTLPNEVHELSLRLVKVGDASDSTGDHKVMSKNNSQALTASATPT
B3: GAS57 mutant S617A, His-tagged (protein)
chain: B2 chain with A118D, S584A
B4: GAS57 double mutant D151A+S617A, His-tagged (protein)
chain: B2 chain with S584A

Molecular target: interleukin-8 (IL-8; CXCL8)

| Protein | IL-8 cleavage, SDS-PAGE with silver staining | percentage of uncleaved IL-8, ELISA | uncleaved IL-8 after 24 h incubation, ELISA | IL-8 cleavage, SDS-PAGE with silver staining, 24 hours |
| --- | --- | --- | --- | --- |
| B1 | Wild-type GAS57 (lanes 2 and 3) released two bands: 8 kDa (active form) and 6 kDa (inactive cleaved IL-8) | wild-type GAS57 almost completely inactivated IL-8 after 8 hours, even at the lower concentration | – | – |
| B2 | the GAS57 D151A mutant released only one band, which corresponded to uncleaved IL-8, as in the control reaction (without enzyme) | no inactivation was observed for IL-8 treated with the mutant enzyme | the mutants release 100% of uncleaved IL-8 after 24 h incubation | – |
| B3 | – | – | the mutants release 100% of uncleaved IL-8 after 24 h incubation | unable to cleave IL-8, even at a 100-fold higher concentration than wild-type GAS57 |
| B4 | – | – | the mutants release 100% of uncleaved IL-8 after 24 h incubation | unable to cleave IL-8, even at a 100-fold higher concentration than wild-type GAS57 |
